From paper doi:10.1101/2025.06.27.661974 (bioRxiv, 2025)

Target: the molecule itself
Assay: SEC-MALS

B1: Flag-UBE2O-TwinStrep (recombinant Homo sapiens UBE2O, purified) (enzyme, human, UniProt Q9C0C9 1-1292, looked up)
chain: MADPAAPTPAAPAPAQAPAPAPEAVPAPAAAPVPAPAPASDSASGPSSDSGPEAGSQRLLFSHDLVSGRYRGSVHFGLVRLIHGEDSDSEGEEEGRGSSGCSEAGGAGHEEGRASPLRRGYVRVQWYPEGVKQHVKETKLKLEDRSVVPRDVVRHMRSTDSQCGTVIDVNIDCAVKLIGTNCIIYPVNSKDLQHIWPFMYGDYIAYDCWLGKVYDLKNQIILKLSNGARCSMNTEDGAKLYDVCPHVSDSGLFFDDSYGFYPGQVLIGPAKIFSSVQWLSGVKPVLSTKSKFRVVVEEVQVVELKVTWITKSFCPGGTDSVSPPPSVITQENLGRVKRLGCFDHAQRQLGERCLYVFPAKVEPAKIAWECPEKNCAQGEGSMAKKVKRLLKKQVVRIMSCSPDTQCSRDHSMEDPDKKGESKTKSEAESASPEETPDGSASPVEMQDEGAEEPHEAGEQLPPFLLKEGRDDRLHSAEQDADDEAADDTDDTSSVTSSASSTTSSQSGSGTSRKKSIPLSIKNLKRKHKRKKNKITRDFKPGDRVAVEVVTTMTSADVMWQDGSVECNIRSNDLFPVHHLDNNEFCPGDFVVDKRVQSCPDPAVYGVVQSGDHIGRTCMVKWFKLRPSGDDVELIGEEEDVSVYDIADHPDFRFRTTDIVIRIGNTEDGAPHKEDEPSVGQVARVDVSSKVEVVWADNSKTIILPQHLYNIESEIEESDYDSVEGSTSGASSDEWEDDSDSWETDNGLVEDEHPKIEEPPIPPLEQPVAPEDKGVVISEEAATAAVQGAVAMAAPMAGLMEKAGKDGPPKSFRELKEAIKILESLKNMTVEQLLTGSPTSPTVEPEKPTREKKFLDDIKKLQENLKKTLDNVAIVEEEKMEAVPDVERKEDKPEGQSPVKAEWPSETPVLCQQCGGKPGVTFTSAKGEVFSVLEFAPSNHSFKKIEFQPPEAKKFFSTVRKEMALLATSLPEGIMVKTFEDRMDLFSALIKGPTRTPYEDGLYLFDIQLPNIYPAVPPHFCYLSQCSGRLNPNLYDNGKVCVSLLGTWIGKGTERWTSKSSLLQVLISIQGLILVNEPYYNEAGFDSDRGLQEGYENSRCYNEMALIRVVQSMTQLVRRPPEVFEQEIRQHFSTGGWRLVNRIESWLETHALLEKAQALPNGVPKASSSPEPPAVAELSDSGQQEPEDGGPAPGEASQGSDSEGGAQGLASASRDHTDQTSETAPDASVPPSVKPKKRRKSYRSFLPEKSGYPDIGFPLFPLSKGFIKSIRGVLTQFRAALLEAGMPECTEDK
For B1, the “stoichiometry N” value was 2.
